This note sets out measurements from US20230331820A1 (GlaxoSmithKline, published 2023).

Assay in all cases: ELISA, supernatant
Test [1] concerns the target gEgI mutant (P317R): HSV2 gEgI mutant heterodimer comprising gE and gI ectodomains with mutation P317R in gE (HSV2, UniProt P89475 21-416; P06764 21-256).
Test [2] addresses gEgI WT: HSV2 gEgI heterodimer comprising gE and gI wildtype ectodomains (HSV2, UniProt P89475 21-416; P06764 21-256).
In test [3] the target is gEgI mutant (338): HSV2 gEgI mutant heterodimer comprising gE and gI ectodomains with insertion of a (HSV2, UniProt P89475 21-416; P06764 21-256).
Test [4] has as its target gE WT: HSV2 gE wildtype ectodomain (HSV2, UniProt P89475 21-416).
Test [5] addresses gEgI mutant (R320D): HSV2 gEgI mutant heterodimer comprising gE and gI ectodomains with mutation R320D in gE (HSV2, UniProt P89475 21-416; P06764 21-256).
Test [6] has as its target gEgI mutant (P319D): HSV2 gEgI mutant heterodimer comprising gE and gI ectodomains with mutation P319D in gE (HSV2, UniProt P89475 21-416; P06764 21-256).
For test [7], the target named is gI WT: HSV2 gI wildtype ectodomain (HSV2, UniProt P06764 21-256).

B1: mAb clone 47 (antibody, V domains shown)
VH: EVKLVESGGGLVQPGGSLRLSCATSGFTFTDYYMSWVRQPPGKALEWLGFIRNKANGYTTEYSASVKGRFTISRDNSQSILYLQMNTLRAEDSATYYCARDRPGFDYWGQGTTLTVSS
VL: NIVLTQSPASLAVSLGQRATISCRASESVDSFGNSFMHWYQQKPGQPPKLLIYLASNLESGVPARFSGSGSRTDFTLTIDPVEADDAATYYCQQNNEDPPWTFGGGTKLEIK
Turning to B1, the binding result is “no binding” in test [1]; “binds” in test [2]; “no binding” in test [3]; “binds” in test [4]; “no binding” in test [5]; “no binding” in test [6]. Moreover, the binding result in test [7] is “no binding”.

B2: mAb clone 43 (antibody, V domains shown)
VH: DVKLVESGGGLVKPGGSLKLSCAASGFTFSSYTMSWVRQTPEKRLEWVATISSGGSYTYYPDSVKGRFTISRDNAKNTLYLQMSSLKAEDTAMYYCTRGGYGSSFENYFDYWGQGTTLTVSS
VL: DIVMSQSPSSLAVSAGEKVTMSCKSSQSLLNSRTRKNYLAWYQQKPGQSPKLLIYWASTRESGVPDRFTGSGSGTDFTLTISSVQAEDLAVYSCKQSYNLPLTFGAGTKLELK
notes: also called GEGI/43IIa
For B2, the binding result in test [1], in test [2], in test [3], in test [4], in test [5] and in test [6] was “binds” each time. The binding result in test [7] is on record as “no binding”.
